Assay results as given in the supplement of paper PMC12042874.
± gives the uncertainty stated by the source.

assay: amyloid nucleation score (Sup35N fusion, yeast selection) (log enrichment); library NNK3; higher = more nucleation; inactive = no reads after selection
Summary of the method: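 The nucleation score is a DiMSum log enrichment of output over input reads, centred on the mode score of non-aggregating sequences. Sequences under 100 input reads were excluded, and reads came from Illumina sequencing of plasmid inserts. Psi-negative yeast expressing Sup35N fused to peptides of 20 random codons were induced with 100 μM copper sulfate for 24 hours and grown 7 days at 30°C on medium lacking adenine and uracil. Random libraries had three technical output replicates.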

Substance	amyloid nucleation score
LNFDNRNFFGDMSAESATPF	inactive
FRHCGCHTFLCIIVTDRHHY	1.85 ± 0.061
GLPSFRHSF	inactive
LFVCRLMENLEGY	inactive
LYHTLKTHVKIFPCHSTDAP	inactive
VTRIW	inactive
SFDFHRVMIPRDRPDYHPSM	inactive
VFSIND	inactive
RKMDLVDKSMSTIGYLAHHG	-0.63 ± 0.82
GATFVRILSRLIRLSFI	inactive
IRFQSYRLASSSLVCDCVFC	0.627 ± 0.31
SRLEGIAGVKKGVMVNQKRL	inactive
GSMMLWCFIDSSWDLSLRK	0.884 ± 0.19
CKCEQVFLGLNLRYKEHDAW	inactive
VLGPGIIRTEQVLTVVRTMA	inactive
FFFRYILKGMPVLFAVCRHC	inactive
ISNVIMWNWGLDFTNYYSDS	1.45 ± 0.093
IMLLLYSESYLTPRTVVNSR	inactive
SIRKHFPIRNMDELHSARN	inactive
WIDRQLKRGL	inactive
VYFRFYNL	1.36 ± 0.073
ALCMIYFW	2.79 ± 0.076
IVNIKMNLWFYGNFMLWASS	inactive

Substance	amyloid nucleation score
DWSWFK	inactive
INYLFASRSKQEQLLDWRFS	inactive
HWILSTPCLNVV	inactive
VAFYMMYSSGPQRTRRWVTV	inactive
MLWYLESWLTLHGTVECNVW	inactive
SCLWGKRLMFWCE	-0.528 ± 0.77
YRHICKYCFGQPVGHH	-1.1 ± 1.9
CPYLSSVLHDAQLKATFING	1.11 ± 0.096
YMAVKRSWSNSMTMIHLNSV	inactive
LCLFRTRVIGVS	inactive
NDCRCTIFAAYIKILYKFLG	1.13 ± 0.097
MFQFVFSVQMSGSAFRMFMK	inactive
TSLLAELLVWWE	inactive
NGINNCSEIKHVCTGLANPV	inactive
RRSRCVRSVYRFRMSRARPP	inactive
YSMVFHTWCMRVMRGVFIWM	inactive
PREWLGVLLMTVLNFWMTVV	inactive
IPIFWCYI	inactive
FWFSTELVDDGAGQT	inactive
KNVTFTCHWTSKSLNMYYEE	0.512 ± 0.29
NAYSKNVFQHVGMHTWSWYL	inactive
YWFDSPPSFRAYPCWNR	inactive
SKFSCIRSYYG	inactive

Substance	amyloid nucleation score
LSDFL	inactive
CQGIMDRRTSKRMPIANMVQ	inactive
TSLSTSKVLDASLRMDQLST	inactive
WSNTFVWLSINLSYIV	inactive
TTKEVESNSAHCPKSSLACT	inactive
YIGFGGDCSVSAFVTCQLGF	inactive
KLMVNNQFISISINMSRCLF	1.63 ± 0.098
EFMIIMYSHSLCVLQAVQLV	inactive
SWFVHKFSIRYNLFDFSYIF	inactive
KDYGLADGERHESM	inactive
MRVLGLGEAWDDNGLRRLRA	inactive
GGVTYRQDLTRYLSG	inactive
PSVIRNAYYAY	inactive
LMANVGPAWLQSFAIRGTSH	inactive
NNMVHVVDKFFSLILVMVFS	inactive
GCNDSSARLS	inactive
CCVSVKYWYYV	2.18 ± 0.058
VAGSLVAKP	inactive
VRFCGLLIGQVTWFLAVLEY	inactive
LKRLSCFTGSPR	inactive
YCTWAYRVYSYSGCTMMIVL	inactive
DYCLSLLWINMPHVGNIVNL	inactive
ERSHVCCGNDRYTLLWRVYS	inactive

Substance	amyloid nucleation score
KINRVSLLVLGH	inactive
SARRTVYLFQNSHRVHPFLF	inactive
WSFQLSVLFVCNLITYNCV	1.68 ± 0.069
CVHYRFMLSRLYMILVPLTY	inactive
IIRVRQTLSVRFIYIF	inactive
WIMPLDQ	inactive
LLSDICFCYYAREIRNSGCS	inactive
TWRFVPRPLLVCMLYRYLCK	inactive
FFIYVQTGPS	-0.922 ± 1.5
VSVIWSMMCIRIITISCGRV	inactive
FRMTPHIGALSNRLHVTTWL	-0.226 ± 0.7
NYIDGFFFVHWAGTLMHKDC	inactive
SRRSLNGIN	-0.05 ± 0.3
LFNLL	inactive
SPLYGYGDKRQVRYLLTGSC	inactive
STIAGPFLKFARSGTCPPVP	-0.776 ± 1.8
LDYNVRVGIVSRFTQLTHVN	inactive
TCSISIRAGLVLNPCWSDYA	inactive
VCYYVFRTDIIIVIRVDAWL	inactive
VWIRRTCDFNQYRESDLLIR	inactive
ASVKGDRDDELSIKYVFGVG	inactive
GVFWLLNICQYGPRLRHMWS	inactive
DGKQVRGPGVAQSGANNGLE	inactive

Substance	amyloid nucleation score
ICWKRCHG	inactive
PCQDWARYAPGLPLPMGLAL	-0.293 ± 0.89
QNHTVHSARWDNGSTANTTT	inactive
RSDMTAHDTNDAVQLEPSVE	inactive
FVEAANNSFCYESSNIT	inactive
IYCVEERHFLNIYSRMSYYS	inactive
YSSPRSVNSYGLDYVYRTA	inactive
RLWLYR	inactive
NAMCR	inactive
FIYSGYTSVNKILGFYNHDS	0.95 ± 0.16
KYLLLKRNARQRLHTVCHQA	inactive
SMGSPVNVIWTSSYS	inactive
KGTYGFAINHHYIA	inactive
ILLRPPGWSRQWSVRWGNYP	inactive
GYAADMIFYQGHHMKISMFR	1.08 ± 0.15
TGTFDRWDPVTAGLPTGLGE	inactive
FRVNKYNISFLVRQSGIWLA	inactive
LFFYFLEPR	inactive
CFMSLLNF	inactive
YQFFDASLIAR	inactive
NKEMIFANYSAGRRYVRYST	inactive
SSDSIKTWWKNTNVICVSGG	inactive
LEFSYPCRWA	inactive

Substance	amyloid nucleation score
FLGTVLLGWFIAMMSRCLGR	0.048 ± 0.45
SIKSSISIFKYF	inactive
VFYIIW	1.89 ± 0.063
NGLPARRV	inactive
YIFDMSTGQDSMVY	inactive
LWYWVELLCCTGGSRA	2.02 ± 0.086
NLLYSCVYRHQPLYPAMDFP	inactive
RFPEAVPNKWSGPPTFNPHE	inactive
TCAVKMVRSWCNIPINSFQA	inactive
VYRLFRMYILTGGLNVNGGR	inactive
VSASILS	inactive
LDKFHCRFYMQNSN	inactive
WVIACVMRYVVFKNKVMIVR	inactive
DIKVMNLCLNWFFRLIHGV	inactive
LRLQRDPCSNSLSVLSCIFC	2.63 ± 0.06
PCRTDICR	inactive
RYGFCHYCYRVLDFDVDVRW	0.881 ± 0.14
PMMGSLYFVP	inactive
DFSSWSFYHYPLVGQSSYTS	inactive
CDVVSSDMVFDLS	inactive
GYYANGISRPVILLMFWRVR	inactive
NTTCYIVRVMYVPHG	inactive
DADTW	inactive

Substance	amyloid nucleation score
NVNLVSIVVVIMDEKDKVKE	2.84 ± 0.07
YDNVVYLIVGHYG	inactive
DSVFNL	inactive
SAWSTECYVMCSM	inactive
SIMLFWVTGRLLRLSLLMLL	0.45 ± 0.21
SRKLCSHR	-0.557 ± 0.66
SYTKDVV	inactive
RLVAFGRRWDESSKVECMWS	inactive
VFVQTLILWVHSRIAALQDS	inactive
SGLFWRTLEPLNSVDRFYG	inactive
FSSFG	inactive
IAGKIEIIVVRCYSLVGPCT	0.305 ± 0.19
NIFDFVFDEFRLAQPMYKCC	inactive
LGRLVG	inactive
YVKGRSETCPKDRIKGVRSD	inactive
FNLLHTRMTLLYSNIRNRYN	0.358 ± 0.62
CVCPKANVEYPMACFRHIIV	inactive
VDSSMDLHSIS	inactive
CILSVHGGILLFSIGAAFGR	0.779 ± 0.27
FLRLKFRAYDP	1.01 ± 0.11
MTLFDWFFLEIKAGWFRMVV	inactive
DTPMESGTGATHLVRIVHSA	inactive
